In patent publication US20260049138A1 (Chugai, published 2026):
Changes are numbered by the printed parent chain. Names and notes keep the numbering of the source.

B1: CE115HA000 H35A one-arm antibody (antibody, human IgG1, kappa, L234A L235A, N297A, name in Kabat numbering)
heavy: QVQLVESGGGVVQPGRSLRLSCAASGFTFSNAWMAWVRQAPGKGLEWVAQIKAKSNNYATYYAESVKGRFTISRDDSKNSLYLQMNSLKTEDTAVYYCRYVHYGAYYGVDAWGQGTTVTVSSASTKGPSVFPLAPSSKSTSGGTAALGCLVKDYFPEPVTVSWNSGALTSGVHTFPAVLQSSGLYSLSSVVTVPSSSLGTQTYICNVNHKPSNTKVDKKVEPKSCDKTHTCPPCPAPEAAGGPSVFLFPPKPKDTLMISRTPEVTCVVVDVSHEDPEVKFNWYVDGVEVHNAKTKPREEQYASTYRVVSVLTVLHQDWLNGKEYKCKVSNKALPAPIEKTISKAKGQPREPQVYTLPPSRCELTKNQVSLSCAVKGFYPSDIAVEWESNGQPENNYKTTPPVLDSDGSFFLVSKLTVDKSRWQQGNVFSCSVMHEALHNHYTQKSLSLSPDYKDDDDK
chain: EPKSSDKTHTCPPCPAPELLGGPSVFLFPPKPKDTLMISRTPEVTCVVVDVSHEDPEVKFNWYVDGVEVHNAKTKPREEQYNSTYRVVSVLTVLHQDWLNGKEYKCKVSNKALPAPIEKTISKAKGQPREPQVCTLPPSRDELTKNQVSLWCLVKGFYPSDIAVEWESNGQPENNYKTTPPVLDSDGSFFLYSKLTVDKSRWQQGNVFSCSVMHEALHNRYTQKSLSLSP
light: DIVMTQSPLSLPVTPGEPASISCRSSQSLVHSNRNTYLHWYQQKPGQAPRLLIYKVSNRFSGVPDRFSGSGSGTDFTLKISRVEAEDVGVYYCGQGTQVPYTFGQGTKLEIKRTVAAPSVFIFPPSDEQLKSGTASVVCLLNNFYPREAKVQWKVDNALQSGNSQESVTEQDSKDSTYSLSSTLTLSKADYEKHKVYACEVTHQGLSSPVTKSFNRGEC
B2: CE115HA000 A56G one-arm antibody (antibody, human IgG1, kappa, L234A L235A, N297A, name in Kabat numbering)
heavy: B1 heavy with A35H, A59G
chain: B1 chain
light: B1 light
B3: CE115HA000 A52aY one-arm antibody (antibody, human IgG1, kappa, L234A L235A, N297A, name in Kabat numbering)
heavy: B1 heavy with A35H, A53Y
chain: B1 chain
light: B1 light
B4: CE115HA000 A32Y one-arm antibody (antibody, human IgG1, kappa, L234A L235A, N297A, name in Kabat numbering)
heavy: B1 heavy with A32Y, A35H
chain: B1 chain
light: B1 light
B5: CE115HA000 A52aD one-arm antibody (antibody, human IgG1, kappa, L234A L235A, N297A, name in Kabat numbering)
heavy: B1 heavy with A35H, A53D
chain: B1 chain
light: B1 light
B6: CE115HA000 A52aS one-arm antibody (antibody, human IgG1, kappa, L234A L235A, N297A, name in Kabat numbering)
heavy: B1 heavy with A35H, A53S
chain: B1 chain
light: B1 light
B7: CE115HA000 A52aP one-arm antibody (antibody, human IgG1, kappa, L234A L235A, N297A, name in Kabat numbering)
heavy: B1 heavy with A35H, A53P
chain: B1 chain
light: B1 light
B8: CE115HA000 A52aE one-arm antibody (antibody, human IgG1, kappa, L234A L235A, N297A, name in Kabat numbering)
heavy: B1 heavy with A35H, A53E
chain: B1 chain
light: B1 light
B9: CE115HA000 A56Q one-arm antibody (antibody, human IgG1, kappa, L234A L235A, N297A, name in Kabat numbering)
heavy: B1 heavy with A35H, A59Q
chain: B1 chain
light: B1 light
B10: CE115HA000 A56L one-arm antibody (antibody, human IgG1, kappa, L234A L235A, N297A, name in Kabat numbering)
heavy: B1 heavy with A35H, A59L
chain: B1 chain
light: B1 light
B11: CE115HA000 A52aV one-arm antibody (antibody, human IgG1, kappa, L234A L235A, N297A, name in Kabat numbering)
heavy: B1 heavy with A35H, A53V
chain: B1 chain
light: B1 light
B12: CE115HA000 A56N one-arm antibody (antibody, human IgG1, kappa, L234A L235A, N297A, name in Kabat numbering)
heavy: B1 heavy with A35H, A59N
chain: B1 chain
light: B1 light
B13: CE115HA000 A56D one-arm antibody (antibody, human IgG1, kappa, L234A L235A, N297A, name in Kabat numbering)
heavy: B1 heavy with A35H, A59D
chain: B1 chain
light: B1 light
B14: CE115HA000 A56K one-arm antibody (antibody, human IgG1, kappa, L234A L235A, N297A, name in Kabat numbering)
heavy: B1 heavy with A35H, A59K
chain: B1 chain
light: B1 light
B15: CE115HA000 A52aG one-arm antibody (antibody, human IgG1, kappa, L234A L235A, N297A, name in Kabat numbering)
heavy: B1 heavy with A35H, A53G
chain: B1 chain
light: B1 light
B16: GLS3000 V94P one-arm antibody (antibody, human IgG1, kappa, L234A L235A, N297A, name in Kabat numbering)
heavy: B1 heavy with A35H
chain: B1 chain
light: B1 light with V99P
B17: GLS3000 Q45E one-arm antibody (antibody)
chain 1: B1 light with R50E
chain 2: B1 heavy with A35H
chain 3: B1 chain
B18: GLS3000 V94Q one-arm antibody (antibody, human IgG1, kappa, L234A L235A, N297A, name in Kabat numbering)
heavy: B1 heavy with A35H
chain: B1 chain
light: B1 light with V99Q
B19: GLS3000 Y96H one-arm antibody (antibody, human IgG1, kappa, L234A L235A, N297A, name in Kabat numbering)
heavy: B1 heavy with A35H
chain: B1 chain
light: B1 light with Y101H
B20: GLS3000 V94T one-arm antibody (antibody, human IgG1, kappa, L234A L235A, N297A, name in Kabat numbering)
heavy: B1 heavy with A35H
chain: B1 chain
light: B1 light with V99T
B21: GLS3000 Y96E one-arm antibody (antibody, human IgG1, kappa, L234A L235A, N297A, name in Kabat numbering)
heavy: B1 heavy with A35H
chain: B1 chain
light: B1 light with Y101E
B22: GLS3000 Y32D one-arm antibody (antibody, human IgG1, kappa, L234A L235A, N297A, name in Kabat numbering)
heavy: B1 heavy with A35H
chain: B1 chain
light: B1 light with Y37D
B23: GLS3000 V94Y one-arm antibody (antibody, human IgG1, kappa, L234A L235A, N297A, name in Kabat numbering)
heavy: B1 heavy with A35H
chain: B1 chain
light: B1 light with V99Y
B24: GLS3000 Y96F one-arm antibody (antibody, human IgG1, kappa, L234A L235A, N297A, name in Kabat numbering)
heavy: B1 heavy with A35H
chain: B1 chain
light: B1 light with Y101F
B25: GLS3000 Y32A one-arm antibody (antibody, human IgG1, kappa, L234A L235A, N297A, name in Kabat numbering)
heavy: B1 heavy with A35H
chain: B1 chain
light: B1 light with Y37A
B26: GLS3000 V94S one-arm antibody (antibody, human IgG1, kappa, L234A L235A, N297A, name in Kabat numbering)
heavy: B1 heavy with A35H
chain: B1 chain
light: B1 light with V99S
B27: GLS3000 Y96L one-arm antibody (antibody, human IgG1, kappa, L234A L235A, N297A, name in Kabat numbering)
heavy: B1 heavy with A35H
chain: B1 chain
light: B1 light with Y101L
B28: GLS3000 Y96D one-arm antibody (antibody, human IgG1, kappa, L234A L235A, N297A, name in Kabat numbering)
heavy: B1 heavy with A35H
chain: B1 chain
light: B1 light with Y101D
B29: GLS3000 Y32F one-arm antibody (antibody, human IgG1, kappa, L234A L235A, N297A, name in Kabat numbering)
heavy: B1 heavy with A35H
chain: B1 chain
light: B1 light with Y37F
B30: GLS3000 Y32P one-arm antibody (antibody, human IgG1, kappa, L234A L235A, N297A, name in Kabat numbering)
heavy: B1 heavy with A35H
chain: B1 chain
light: B1 light with Y37P
B31: GLS3000 V94R one-arm antibody (antibody, human IgG1, kappa, L234A L235A, N297A, name in Kabat numbering)
heavy: B1 heavy with A35H
chain: B1 chain
light: B1 light with V99R
B32: GLS3000 V94W one-arm antibody (antibody, human IgG1, kappa, L234A L235A, N297A, name in Kabat numbering)
heavy: B1 heavy with A35H
chain: B1 chain
light: B1 light with V99W

These binders were tested against T1, CD3ε homodimer protein (human, UniProt P07766 23-126, limits assumed, sulfo-tag or biotin label in the ECL assays; amine-coupled to the chip in SPR) (assay: SPR Biacore T200; CD3ε homodimer on CM4 chip;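 also: Single-residue variant antibodies injected as analyte over CD3ε homodimer immobilized by amine coupling, run at 25 °C in HBS-EP+ buffer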).
T1 construct: also called human CD3ε homodimer protein; CD3 (CD3ε)
T1 sequence (P07766 23-126 limits assumed): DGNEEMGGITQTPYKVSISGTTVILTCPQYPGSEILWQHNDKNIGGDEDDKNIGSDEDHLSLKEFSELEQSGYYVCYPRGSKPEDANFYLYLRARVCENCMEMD

Row | Binder | ratio of amounts bound Z=Y/X (altered form / CE115HA000)
1 | B1 | 0.17
2 | B2 | 0.61
3 | B3 | 0.31
4 | B4 | 0.33
5 | B5 | 1.34
6 | B6 | 1.05
7 | B7 | 0.15
8 | B8 | 0.57
9 | B9 | 0.76
10 | B10 | 0.8
11 | B11 | 0.52
12 | B12 | 0.67
13 | B13 | 0.51
14 | B14 | 1.35
15 | B15 | 0.81

Each binder was assayed against T2, CD3ε homodimer protein (human, UniProt P07766 23-126, limits assumed) (assay: SPR Biacore T200, CD3ε homodimer on chip;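 also: Light-chain single-residue variant antibodies injected over amine-coupled CD3ε homodimer on a CM4 chip at 25 °C, bound amount divided by that of the GLS3000-containing antibody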).
T2 construct: also called CD3 (CD3ε)
T2 sequence (P07766 23-126 limits assumed): as above

Row | Binder | ratio of amount bound vs unaltered GLS3000
16 | B16 | 1.26
17 | B17 | 0.75
18 | B18 | 0.76
19 | B19 | 0.23
20 | B20 | 0.93
21 | B21 | 0.17
22 | B22 | 0.23
23 | B23 | 0.63
24 | B24 | 1.17
25 | B25 | 0.24
26 | B26 | 0.93
27 | B27 | 0.32
28 | B28 | 0.17
29 | B29 | 0.29
30 | B30 | 0.24
31 | B31 | 0.66
32 | B32 | 0.58
